# Test results taken from US7943358B2, “Polymerase enhancing factor (PEF) extracts, PEF protein complexes, isolated PEF protein, and methods for purifying and identifying” (Agilent Technologies, Inc., priority 1997, dated 2011).
# T1: cloned Pfu DNA polymerase (Pyrococcus furiosus, UniProt P61875)
# T1 sequence (P61875 1-775): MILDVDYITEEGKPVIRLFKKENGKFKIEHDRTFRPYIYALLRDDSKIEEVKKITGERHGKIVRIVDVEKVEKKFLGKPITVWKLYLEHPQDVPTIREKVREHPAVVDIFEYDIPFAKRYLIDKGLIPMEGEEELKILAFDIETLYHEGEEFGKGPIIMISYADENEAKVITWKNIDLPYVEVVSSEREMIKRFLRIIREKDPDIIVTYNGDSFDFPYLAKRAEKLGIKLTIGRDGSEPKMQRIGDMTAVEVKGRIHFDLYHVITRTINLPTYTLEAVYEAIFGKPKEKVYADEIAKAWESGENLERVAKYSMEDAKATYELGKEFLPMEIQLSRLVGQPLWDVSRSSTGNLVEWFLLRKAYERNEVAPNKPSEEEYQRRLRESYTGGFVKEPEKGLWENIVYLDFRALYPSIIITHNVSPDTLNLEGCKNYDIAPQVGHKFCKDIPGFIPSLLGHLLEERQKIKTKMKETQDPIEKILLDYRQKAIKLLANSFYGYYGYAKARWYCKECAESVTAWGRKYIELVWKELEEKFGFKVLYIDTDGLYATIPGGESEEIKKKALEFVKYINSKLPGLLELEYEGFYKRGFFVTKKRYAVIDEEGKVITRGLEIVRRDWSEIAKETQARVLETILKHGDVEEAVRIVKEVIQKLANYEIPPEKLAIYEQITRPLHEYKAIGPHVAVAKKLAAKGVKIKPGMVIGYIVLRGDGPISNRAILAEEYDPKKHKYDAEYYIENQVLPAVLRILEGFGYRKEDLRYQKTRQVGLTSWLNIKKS
# T2: Pfu DNA polymerase (Pyrococcus furiosus, UniProt P61875)
# T2 sequence (P61875 1-775): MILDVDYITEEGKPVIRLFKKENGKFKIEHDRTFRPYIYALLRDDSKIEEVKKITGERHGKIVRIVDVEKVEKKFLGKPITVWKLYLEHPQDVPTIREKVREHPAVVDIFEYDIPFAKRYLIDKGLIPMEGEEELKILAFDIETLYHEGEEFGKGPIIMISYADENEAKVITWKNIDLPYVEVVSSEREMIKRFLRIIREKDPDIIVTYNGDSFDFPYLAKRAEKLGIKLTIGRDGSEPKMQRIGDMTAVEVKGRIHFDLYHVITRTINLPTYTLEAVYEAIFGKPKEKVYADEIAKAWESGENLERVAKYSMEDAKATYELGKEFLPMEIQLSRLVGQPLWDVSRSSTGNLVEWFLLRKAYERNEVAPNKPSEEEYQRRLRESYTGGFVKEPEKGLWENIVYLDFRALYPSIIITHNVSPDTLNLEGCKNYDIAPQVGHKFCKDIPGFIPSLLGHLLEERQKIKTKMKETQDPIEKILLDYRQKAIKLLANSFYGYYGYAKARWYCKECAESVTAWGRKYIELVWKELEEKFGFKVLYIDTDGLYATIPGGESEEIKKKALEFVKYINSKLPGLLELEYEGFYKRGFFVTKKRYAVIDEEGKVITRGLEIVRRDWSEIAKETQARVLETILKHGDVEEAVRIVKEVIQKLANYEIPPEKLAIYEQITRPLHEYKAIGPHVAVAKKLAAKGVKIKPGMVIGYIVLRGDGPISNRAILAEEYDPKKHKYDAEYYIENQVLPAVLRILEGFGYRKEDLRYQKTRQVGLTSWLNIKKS
# B1: PEF: polymerase enhancing factor complex purified from Pyrococcus furiosus; predominant components P50 and P45 (protein)
# chain 1: MLHHVKLIYATKSRKLVGKKIVXXXPGSIAALDVKACEGLIRHGAEVHAVMSEAATKIIHPYAWNLPTGNPVITEITGFIEHVELAGEHENKADLILVCPATANTISKIACGIDDTPVTTVVTTAFPHIPIMIAPAMHETMYRHPIVRENIERLKKLGVEFIGPRIEEGRAKVASIDEIVYRVIKKLHKKTLEGKRVLVTAGATREYIDPIRFITNASSGKMGVALAEEADFRGAVTLIRTKGSVKAFRIRKIKLKVETVEEMLSAIENELRSKKYDVVIMAAAVSDFRPKIKAEGKIKSGRSITIELVPXNPKIIDRIKEIQPNVFLVGFKAETSKEKLIEEGKRQIERAKADLVVGNTLEAFGSEENQVVLIGRDFTKELPKMKKRELAERIWDEIEKXLS
# chain 2: MLLPDWKIRKEILIEPFSEESLQPAGYDLRVGREAFVKGKLIDVEKEGKVVIPPREYALILTLERIKLPDDVMGDMKIRSSLAREGVIGSFAWVDPGWDGNLTLMLYNASNEPVELRYGERFVQIAFIRLEGPARNPYRGNYQGSTRLAFSKRKKL
# modifications: not fully specified; X: residue not identified in the source
# notes: polymerase enhancing factor complex purified from Pyrococcus furiosus; predominant components P50 and P45
# Experiments:
# Type in all cases: biochemical
# [1] = PPi detection with dATP in place of dUTP; conditions: 1 hour at 72° C.
# Experimental: […] The presence of PPi in the reaction mixture was then quantified using Sigma's Enzymatic Determination of Pyrophosphate kit (Sigma Product No. P7275). The kit utilizes a coupled enzyme system whereby two moles of NADH are oxidized to NAD^+ for each mole of PPi present in the reaction mixture. The oxidation of NADH is monitored spectrophotometrically at 340 nm. […] The reactions that contained 1800 ng of PEF produced twice as much PPi as those that contained 900 ng of PEF.
# [2] = biological target: T1, cloned Pfu DNA polymerase; test: 6.2 kb primer-template PCR enhancing assay
# Experimental: One embodiment of an assay used to screen for PEFs, in this case from Pyrococcus furiosus, involved amplifying a 6.2 kb target from transgenic mouse DNA (6.2 kb primer-template assay). A master PCR cocktail was prepared consisting of: 200 μM each dNTP, 2 μg/ml primer F432-21 (5′-CTA-TTG-AGT-ACG-AAC-GCC-ATC) (SEQ ID NO.: 62), 2 μg/ml primer R6656-20 (GTC-ACG-CTT-GCT-CCA-CTC-CG) (SEQ ID NO: 63), 2.5 μg/ml λAA742 DNA (transgenic mouse DNA having 40 copies of a lambda phage DNA shuttle vector), 1× cloned Pfu DNA polymerase PCR buffer (10 mM KCl, 10 mM (NH4)2SO4, 20 mM Tris-HCl (pH 8.8), 2 mM MgSO4, 0.1% (v/v) Triton X-100, and 100 μg/ml BSA), and 25 U/ml cloned Pfu DNA polymerase. Samples were diluted in 1× cloned Pfu DNA polymerase PCR buffer, and 1 μl of each diluted sample was added to 24 μl of the PCR cocktail. PCR amplifications were conducted on the RoboCycler 96 Temperature Cycler (Stratagene), using the following conditions: 96° C. for 45 s (1 cycle)/96° C. for 45 s; 60° C. for 45 s; 72° C. for 14 min. (35 cycles)/72° C. for 10 min. (1 cycle). PCR products (10 μl/lane) are run out on 1% agarose gels and PCR product bands visualized by ethidium bromide staining. […] When PCR enhancement is due to the presence of PEFs, rather than contaminating endogenous DNA polymerase activity, amplifications performed in the absence of […] yield no PCR product. Moreover, PCR amplifications performed in the absence of exogenous DNA template should yield no PCR product when the PEF sample lacks contaminating target DNA.
# [3] = Reverse phase HPLC analysis of dUTP conversion; conditions: 72° C.
# Experimental: (§1) The similarity of P45 to dCTP deaminases prompted us to test whether dCTP or other nucleotide triphosphates were substrates of PEF/P45. PEF was incubated with dCTP or dUTP and the reaction products were separated by reverse phase HPLC. Reaction mixtures (50 μl) containing 1× cloned Pfu polymerase buffer, 10 mM dCTP or dUTP, and 700 ng PEF (or 5 μl of cloned p45 (˜100 ng) or nothing (neg. control)) were incubated at 72° C. for 1 hour. The samples were injected on a […] Waters Delta-pak C-18 column (300 angstrom/15 μm), equilibrated in 50 mM triethylammonium acetate, pH (7.0) (A). Products were eluted with acetonitrile (B) at 2 ml/min. using the following gradient: 0% B for 5 minutes, 0-10% B over 20 minutes. Absorbence of the eluate was monitored with a photodiode array detector, and peak areas were integrated at 260 nm.
# In a separate Western assay, samples from Thermus thermophilis were run out on an SDS-PAGE gel and probed with the rP45 antisera. […] The PEF as dUTPase activity in these samples was further confirmed by a dUTP conversion assay employing reverse phase HPLC.
# [4] = Reverse phase HPLC analysis of dCTP conversion
# Experimental: as §1
# Pfu DNA polymerase = biological target: T2, Pfu DNA polymerase; test: 0.9 kb α1-antitrypsin PCR in absence or presence of dUTP
# Experimental: A relatively small (0.9 kb) fragment of the human α1-antitrypsin gene was amplified in the absence or presence of dUTP. PCR reaction mixtures contained the following (in a 100 μl volume): 1× Cloned Pfu polymerase buffer; 200 μM each, dCTP, dGTP, dATP; 200 ng oligo F91-23 (100 ng/μl); 200 ng oligo R980-23 (100 ng/μl); 125 ng Human genomic DNA; 2.5 units Pfu DNA polymerase; 200 μM total of (dTTP and dUTP) or (dTTP+PEF generated dUMP).
# PCR cycling was carried out as follows: 95° C. for 1 minute (1 cycle); 95° C. for 1 minute—58° C. for 1 minute—72° C. for 2 minutes (30 cycles).
# Seven ng of PEF can reverse the inhibition caused by as much as 20 μM dUTP (data not shown). The preferred amount of PEF or P45 used in a particular reaction can be optimized according to the principles provided here or by methods for quantifying amplification reactions known in the art.
molecule,measurement,setting,value
B1,PPi detected with dATP in place of dUTP,[1],No PPi was detected
same,excess PEF giving lower PCR product yield,[2],≥ 900 ng/100 μl
same,PEF concentration range enhancing performance of Pfu DNA polymerase in PCR,"[2]; 10,000-fold range",0.09-900 ng/100 μl
same,very low PEF concentration giving lower PCR product yield,[2]; listed as substantially homogeneous PEF,< 9 pg/100 μl
same,dUTP peak after incubation,"[3]; 10 mM dUTP, one hour",0.1 % total peak area
same,new peak eluting at 4.400 minutes (dUMP),"[3]; 10 mM dUTP, one hour",98 % total peak area
same,dUTP converted,"[3]; 1 hour, 700 ng PEF",100%
same,deamination of dCTP,[4],No deamination
same,dCTP converted,"[4]; 1 hour, 72° C., 700 ng PEF",16.6%
same,prevention of dUTP inhibition,Pfu DNA polymerase; added to PCR reactions containing dUTP,completely prevented
same,dUTP concentration whose inhibition is reversed,"Pfu DNA polymerase; seven ng of PEF, as much as, data not shown",20 µM
